Measured values published in paper PMC5812316 (Biophysics and Physicobiology, 2018).

Target: the molecule itself
Experiment: SEC

Protein | stoichiometry N
Photozipper variant E159K (domain or fragment) GSISSELTEAQKVERRERNREHAKRSRVRKKFLLESLQQSVNELNHKNNSLKESIREHLGPRGDSLIAQSSPEADTLLTDNPSKANRILEDPDYSLVKALQMAQQNFVITDASLPDNPIVYASRGFLTLTGYSLDQILGRNCRFLQGPETDPRAVDKIRNAITKGVDTSVCLLNYRQDGTTFWNLFFVAGLRDSKGNIVNYVGVQSKVSEDYAKLLVNEQNIEYKGVRTSNMLRRK | 2
Photozipper variant K164E (domain or fragment) GSISSELTEAQKVERRERNREHAKRSRVRKKFLLESLQQSVNELNHENNSLEESIREHLGPRGDSLIAQSSPEADTLLTDNPSKANRILEDPDYSLVKALQMAQQNFVITDASLPDNPIVYASRGFLTLTGYSLDQILGRNCRFLQGPETDPRAVDKIRNAITKGVDTSVCLLNYRQDGTTFWNLFFVAGLRDSKGNIVNYVGVQSKVSEDYAKLLVNEQNIEYKGVRTSNMLRRK | 2
Photozipper variant E159R/K164R (domain or fragment) GSISSELTEAQKVERRERNREHAKRSRVRKKFLLESLQQSVNELNHRNNSLRESIREHLGPRGDSLIAQSSPEADTLLTDNPSKANRILEDPDYSLVKALQMAQQNFVITDASLPDNPIVYASRGFLTLTGYSLDQILGRNCRFLQGPETDPRAVDKIRNAITKGVDTSVCLLNYRQDGTTFWNLFFVAGLRDSKGNIVNYVGVQSKVSEDYAKLLVNEQNIEYKGVRTSNMLRRK | 2
